Test [1] has as its target CADM1 on small cell lung cancer cell lines H146 and H69 (human) (UniProt Q9BY67). The test can be described thus: flow cytometry, PE anti-HA antibody alone (control) on H69 cells. (In flow cytometry, cells or beads pass a laser one at a time.)
Test [2] has the same target. The test can be described thus: flow cytometry, PE anti-HA antibody alone (control) on H146 cells.
In test [3] the target is T1, CADM1 peptide structure expressed on cells (CADM1 peptide, Myc tag, hinge, transmembrane domain, GFP) (human).
T1 sequence: DSRAGEEGSIRAVDH
Description: flow cytometry, PE anti-HA antibody alone (control) on cells with the CADM1 peptide structure.

Test [4] concerns the target CADM1 peptide expressed on SBC-5 small cell lung cancer cells (CADM1-SBC-5; peptide - transmembrane domain - GFP) (human). The test can be described thus: flow cytometry, PE anti-HA antibody alone (control) on SBC-5 cells expressing the CADM1 peptide.
In test [5] the target is comparison structure: the same structure without the CADM1 peptide (Myc tag, hinge, transmembrane domain, GFP) on cells. Description: flow cytometry, PE anti-HA antibody alone (control) on cells with the structure without the peptide.

In the case of “PE-conjugated HA antibody (16B12 clone, Biolegend, Cat No. 901518)”, the 결합력 % in test [1] was determined as 2.2%; in test [2], 2.1%; in test [3], 0%; in test [4], 0.3%; in test [5] it was 0.1%.
